{
  "source": "paper PMC9894248",
  "about": "“Alanine synthesized by alanine dehydrogenase enables ammonium-tolerant nitrogen fixation in Paenibacillus sabinae T27”",
  "key": {"GlnR [1]": {"biological_target": "T1, GlnR (Paenibacillus sabinae T27, UniProt X4ZZY3 1-136)", "T1 sequence": "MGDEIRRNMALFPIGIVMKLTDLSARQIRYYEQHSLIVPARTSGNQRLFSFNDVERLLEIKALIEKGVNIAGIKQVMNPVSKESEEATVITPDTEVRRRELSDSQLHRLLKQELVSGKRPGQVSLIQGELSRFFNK", "assay": "SPR; GlnR alone, 0-500 nM; affinity significantly higher than site II; EMSA: 20 ul, 1 ug poly[d(A-T)], 0.3 nM probe, 30 min, 25 C; binding buffer (given for protein dialysis) 20 mM HEPES pH 7.6, 1 mM EDTA, 10 mM (NH4)2SO4, 1 mM DTT, 0.2% Tween 20, 30 mM KCl. SPR: SA chip, 250 RU DNA, GlnR 0-500 nM with or without 25 nM GS", "settings": "protein: recombinant; tags: N-His6; chain copies: 2; label: 5' biotin on capture linker S3; 3' overhang 20 nt on strand 2, annealed to capture linker (strand 3)"}, "AdeR [2]": {"biological_target": "T2, AdeR (Paenibacillus sabinae T27, UniProt X4ZCB7 1-417)", "T2 sequence": "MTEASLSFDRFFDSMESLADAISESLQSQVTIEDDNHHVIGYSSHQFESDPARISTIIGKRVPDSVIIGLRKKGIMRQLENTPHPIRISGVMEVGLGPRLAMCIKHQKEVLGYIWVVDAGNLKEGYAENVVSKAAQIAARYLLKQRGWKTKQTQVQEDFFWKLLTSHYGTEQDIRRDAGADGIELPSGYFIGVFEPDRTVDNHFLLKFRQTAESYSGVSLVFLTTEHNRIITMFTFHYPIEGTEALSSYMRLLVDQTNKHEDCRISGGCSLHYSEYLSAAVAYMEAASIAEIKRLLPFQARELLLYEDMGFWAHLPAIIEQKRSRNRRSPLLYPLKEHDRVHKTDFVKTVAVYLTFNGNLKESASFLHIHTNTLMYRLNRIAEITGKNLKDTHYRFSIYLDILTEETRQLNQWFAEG", "assay": "EMSA; AdeR 100-600 nM; EMSA: 20 ul, 1 ug poly[d(A-T)], 0.3 nM probe, 30 min, 25 C; binding buffer (given for protein dialysis) 20 mM HEPES pH 7.6, 1 mM EDTA, 10 mM (NH4)2SO4, 1 mM DTT, 0.2% Tween 20, 30 mM KCl. SPR: SA chip, 250 RU DNA, GlnR 0-500 nM with or without 25 nM GS", "settings": "protein: recombinant; tags: N-His6; label: 3' DIG (Methods); blunt"}, "GlnR [3]": {"biological_target": "T1, GlnR", "assay": "EMSA; GlnR 4-1024 nM; EMSA: 20 ul, 1 ug poly[d(A-T)], 0.3 nM probe, 30 min, 25 C; binding buffer (given for protein dialysis) 20 mM HEPES pH 7.6, 1 mM EDTA, 10 mM (NH4)2SO4, 1 mM DTT, 0.2% Tween 20, 30 mM KCl. SPR: SA chip, 250 RU DNA, GlnR 0-500 nM with or without 25 nM GS", "settings": "protein: recombinant; tags: N-His6; chain copies: 2; label: 3' DIG (Methods); blunt"}, "AdeR [4]": {"biological_target": "T2, AdeR", "assay": "EMSA; AdeR 100-600 nM; legend misprints 'mutated GlnR-binding site'; EMSA: 20 ul, 1 ug poly[d(A-T)], 0.3 nM probe, 30 min, 25 C; binding buffer (given for protein dialysis) 20 mM HEPES pH 7.6, 1 mM EDTA, 10 mM (NH4)2SO4, 1 mM DTT, 0.2% Tween 20, 30 mM KCl. SPR: SA chip, 250 RU DNA, GlnR 0-500 nM with or without 25 nM GS", "settings": "protein: recombinant; tags: N-His6; label: 3' DIG (Methods); blunt"}},
  "data": [
    {"binder": "SPR probe GlnR site I (TS1) (dsDNA) DNA 1: ATACATATGTGTAATGTAATCTGACATTTGTTTTGACGA DNA 2: TCGTCAAAACAAATGTCAGATTACATTACACATATGTATCCTACCCTACGTCCTCCTGC DNA 3: GCAGGAGGACGTAGGGTAGG", "values": [
      {"measurement": "binding result", "setting": "GlnR [1]", "result": "binds"}
    ]},
    {"binder": "ald1 promoter 40-bp AdeR site (aldP1) (dsDNA) DNA 1: GAATGAAAAACTGACCTTCTCATTGTGATAAAACACAATC DNA 2: GATTGTGTTTTATCACAATGAGAAGGTCAGTTTTTCATTC", "values": [
      {"measurement": "binding result", "setting": "AdeR [2]", "result": "binds"}
    ]},
    {"binder": "nif promoter GlnR site II EMSA probe (nifR2) (dsDNA) DNA 1: TTTTCAAGAAAGGTTGGAGTCAGGTTAACTGACACGTCGGATG DNA 2: CATCCGACGTGTCAGTTAACCTGACTCCAACCTTTCTTGAAAA", "values": [
      {"measurement": "binding result", "setting": "GlnR [3]", "result": "binds"}
    ]},
    {"binder": "ald1 promoter 40-bp mutated AdeR site (aldP1M) (dsDNA) DNA 1: GAATGAAAAACTGACCTTGGATCCGTGATAAAACACAATC DNA 2: GATTGTGTTTTATCACGGATCCAAGGTCAGTTTTTCATTC", "values": [
      {"measurement": "binding result", "setting": "AdeR [4]", "result": "no binding"}
    ]},
    {"binder": "nif promoter GlnR site I EMSA probe (nifR1) (dsDNA) DNA 1: AACGGAAACATGATACATATGTGTAATGTAATCTGACATTTGT DNA 2: ACAAATGTCAGATTACATTACACATATGTATCATGTTTCCGTT", "values": [
      {"measurement": "binding result", "setting": "GlnR [3]", "result": "binds"}
    ]}
  ]
}
